molecular target: cynomolgus CD33 (cynomolgus); assay: flow cytometry KDs on CHO cells, cyno CD33 / human CD33

| KD ratio CynoCD33/huCD33 | Binder |
| --- | --- |
| 1 | CD33/CD3 tandem diabody 09 (bispecific antibody) DIQMTQSPSSLSASVGDRVTITCRSSTGAVTTSNYANWVQQKPGKAPKGLIGGTNKRAPGVPSRFSGSLIGDKATLTISSLQPEDFATYYCALWYSNLWVFGQGTKVEIKGGSGGSQVQLVQSGAEVKKPGASVKVSCKASGYTFTSYDINWVRQAPGQGLEWMGWMNPNSGNTGFAQKFQGRVTMTRDTSTSTVYMELSSLRSEDTAVYYCARDRANTDFSYGMDVWGQGTLVTVSSGGSGQSVLTQPPSASGTPGQRVTISCSGSRSNIGSNTVNWYQQLPGTAPKLLIYGNNQRPSGVPDRFSGSKSGSSASLAISGLQSEDEADYYCATWDDSLIGWVFGGGTKLTVLGGSGGSEVQLVESGGGLVQPGGSLRLSCAASGFTFSTYAMNWVRQAPGKGLEWVGRIRSKYNNYATYYADSVKDRFTISRDDSKNSLYLQMNSLKTEDTAVYYCARHGNFGNSYVSWFAYWGQGTLVTVSSAAAGSHHHHHH |
| 1.1 | CD33/CD3 tandem diabody 15 (bispecific antibody) DIQMTQSPSSLSASVGDRVTITCRSSTGAVTTSNYANWVQQKPGKAPKALIGGTNKRAPGVPSRFSGSLIGDKATLTISSLQPEDFATYYCALWYSNLWVFGQGTKVEIKGGSGGSQVQLVQSGAEVKKPGASVKVSCKASGYTFTSYDINWVRQAPGQGLEWMGWMNPNSGNTGFAQKFQGRVTMTRDTSTSTVYMELSSLRSEDTAVYYCARDRANTDYSFGMDVWGQGTLVTVSSGGSGQSVLTQPPSASGTPGQRVTISCSGSRSNIGSNTVNWYQQLPGTAPKLLIYGNNQRPSGVPDRFSGSKSGTSASLAISGLQSEDEADYYCATWDDSLIGWVFGGGTKLTVLGGSGGSEVQLVESGGGLVQPGGSLRLSCAASGFTFSTYAMNWVRQAPGKGLEWVGRIRSKYNNYATYYADSVKDRFTISRDDSKNSLYLQMNSLKTEDTAVYYCARHGNFGNSYVSYFAYWGQGTLVTVSSAAAGSHHHHHH |
| 1.7 | CD33/CD3 tandem diabody 12 (bispecific antibody) DIQMTQSPSSLSASVGDRVTITCRSSTGAVTTSNYANWVQQKPGKAPKALIGGTNKRAPGVPSRFSGSLIGDKATLTISSLQPEDFATYYCALWYSNLWVFGQGTKVEIKGGSGGSQVQLVQSGAEVKKPGASVKVSCKASGYTFTSYDINWVRQAPGQGLEWMGWMNPNSGNTGFAQKFQGRVTMTRDTSTSTVYMELSSLRSEDTAVYYCARDRAVTDYYYGMDVWGQGTLVTVSSGGSGQSVLTQPPSASGTPGQRVTISCSGSRSNIGSNTVNWYQQLPGTAPKLLIYGNNQRPSGVPDRFSGSKSGTSASLAISGLQSEDEADYYCATWDDSLIGWVFGGGTKLTVLGGSGGSEVQLVESGGGLVQPGGSLRLSCAASGFTFSTYAMNWVRQAPGKGLEWVGRIRSKYNNYATYYADSVKDRFTISRDDSKNSLYLQMNSLKTEDTAVYYCARHGNFGNSYVSYFAYWGQGTLVTVSSAAAGSHHHHHH |
| 0.8 | CD33/CD3 tandem diabody 10 (bispecific antibody) DIQMTQSPSSLSASVGDRVTITCRSSTGAVTTSNYANWVQQKPGKAPKGLIGGTNKRAPGVPSRFSGSLIGDKATLTISSLQPEDFATYYCALWYSNLWVFGQGTKVEIKGGSGGSQVQLVQSGAEVKKPGASVKVSCKASGYTFTSYDINWVRQAPGQGLEWMGWMNPNSGNTGFAQKFQGRVTMTRDTSTSTVYMELSSLRSEDTAVYYCARDRANTDYSFGMDVWGQGTLVTVSSGGSGQSVLTQPPSASGTPGQRVTISCSGSRSNIGSNTVNWYQQLPGTAPKLLIYGNNQRPSGVPDRFSGSKSGTSASLAISGLQSEDEADYYCATWDDSLIGWVFGGGTKLTVLGGSGGSEVQLVESGGGLVQPGGSLRLSCAASGFTFSTYAMNWVRQAPGKGLEWVGRIRSKYNNYATYYADSVKDRFTISRDDSKNSLYLQMNSLKTEDTAVYYCARHGNFGNSYVSWFAYWGQGTLVTVSSAAAGSHHHHHH |

More lines, now with the values behind:

| Binder | KD ratio CynoCD33/huCD33 |
| --- | --- |
| CD33/CD3 tandem diabody 14 (bispecific antibody) DIQMTQSPSSLSASVGDRVTITCRSSTGAVTTSNYANWVQQKPGKAPKALIGGTNKRAPGVPSRFSGSLIGDKATLTISSLQPEDFATYYCALWYSNLWVFGQGTKVEIKGGSGGSQVQLVQSGAEVKKPGASVKVSCKASGYTFTSYDINWVRQAPGQGLEWMGWMNPNSGNTGFAQKFQGRVTMTRDTSTSTVYMELSSLRSEDTAVYYCARDRANTDFSYGMDVWGQGTLVTVSSGGSGQSVLTQPPSASGTPGQRVTISCSGSRSNIGSNTVNWYQQLPGTAPKLLIYGNNQRPSGVPDRFSGSKSGSSASLAISGLQSEDEADYYCATWDDSLIGWVFGGGTKLTVLGGSGGSEVQLVESGGGLVQPGGSLRLSCAASGFTFSTYAMNWVRQAPGKGLEWVGRIRSKYNNYATYYADSVKDRFTISRDDSKNSLYLQMNSLKTEDTAVYYCARHGNFGNSYVSYFAYWGQGTLVTVSSAAAGSHHHHHH | 1 |
| CD33/CD3 tandem diabody 01 (bispecific antibody) DIQMTQSPSSLSASVGDRVTITCRSSTGAVTTSNYANWVQQKPGKAPKGLIGGTNKRAPGVPARFSGSGSGTDFTLTISSLQPEDFATYYCALWYSNLWVFGQGTKVEIKGGSGGSQVQLVQSGAEVKKPGASVKVSCKASGYTFTSYDINWVRQAPGQGLEWMGWMNPNSGNTGFAQKFQGRVTMTRDTSTSTVYMELSSLRSEDTAVYYCARDRANTDFSYGMDVWGQGTLVTVSSGGSGQSVLTQPPSASGTPGQRVTISCSGSRSNIGSNTVNWYQQLPGTAPKLLIYGNNQRPSGVPDRFSGSKSGSSASLAISGLQSEDEADYYCATWDDSLIGWVFGGGTKLTVLGGSGGSEVQLVESGGGLVQPGGSLRLSCAASGFTFSTYAMNWVRQAPGKGLEWVGRIRSKYNNYATYYADSVKDRFTISRDDSKNSLYLQMNSLKTEDTAVYYCARHGNFGNSYVSWFAYWGQGTLVTVSSAAAGSHHHHHH | 0.7 |
| CD33/CD3 tandem diabody 11 (bispecific antibody) DIQMTQSPSSLSASVGDRVTITCRSSTGAVTTSNYANWVQQKPGKAPKGLIGGTNKRAPGVPSRFSGSLIGDKATLTISSLQPEDFATYYCALWYSNLWVFGQGTKVEIKGGSGGSQVQLVQSGAEVKKPGASVKVSCKASGYTFTSYDINWVRQAPGQGLEWMGWMNPNSGNTGFAQKFQGRVTMTRDTSTSTVYMELSSLRSEDTAVYYCARDRANTDYSLGMDVWGQGTLVTVSSGGSGQSVLTQPPSASGTPGQRVTISCSGSRSNIGSNTVNWYQQLPGTAPKLLIYGNNQRPSGVPDRFSGSKSGTSASLAISGLQSEDEADYYCATWDDSLIGWVFGGGTKLTVLGGSGGSEVQLVESGGGLVQPGGSLRLSCAASGFTFSTYAMNWVRQAPGKGLEWVGRIRSKYNNYATYYADSVKDRFTISRDDSKNSLYLQMNSLKTEDTAVYYCARHGNFGNSYVSWFAYWGQGTLVTVSSAAAGSHHHHHH | 1.2 |
| CD33/CD3 tandem diabody 16 (bispecific antibody) DIQMTQSPSSLSASVGDRVTITCRSSTGAVTTSNYANWVQQKPGKAPKALIGGTNKRAPGVPSRFSGSLIGDKATLTISSLQPEDFATYYCALWYSNLWVFGQGTKVEIKGGSGGSQVQLVQSGAEVKKPGASVKVSCKASGYTFTSYDINWVRQAPGQGLEWMGWMNPNSGNTGFAQKFQGRVTMTRDTSTSTVYMELSSLRSEDTAVYYCARDRANTDYSLGMDVWGQGTLVTVSSGGSGQSVLTQPPSASGTPGQRVTISCSGSRSNIGSNTVNWYQQLPGTAPKLLIYGNNQRPSGVPDRFSGSKSGTSASLAISGLQSEDEADYYCATWDDSLIGWVFGGGTKLTVLGGSGGSEVQLVESGGGLVQPGGSLRLSCAASGFTFSTYAMNWVRQAPGKGLEWVGRIRSKYNNYATYYADSVKDRFTISRDDSKNSLYLQMNSLKTEDTAVYYCARHGNFGNSYVSYFAYWGQGTLVTVSSAAAGSHHHHHH | 1.4 |
| CD33/CD3 tandem diabody 13 (bispecific antibody) DIQMTQSPSSLSASVGDRVTITCRSSTGAVTTSNYANWVQQKPGKAPKGLIGGTNKRAPGVPSRFSGSLIGTDFTLTISSLQPEDFATYYCALWYSNLWVFGQGTKVEIKGGSGGSQVQLVQSGAEVKKPGASVKVSCKASGYTFTSYDINWVRQAPGQGLEWMGWMNPNSGNTGFAQKFQGRVTMTRDTSTSTVYMELSSLRSEDTAVYYCARDRAVTDYYYGMDVWGQGTLVTVSSGGSGQSVLTQPPSASGTPGQRVTISCSGSRSNIGSNTVNWYQQLPGTAPKLLIYGNNQRPSGVPDRFSGSKSGTSASLAISGLQSEDEADYYCATWDDSLIGWVFGGGTKLTVLGGSGGSEVQLVESGGGLVQPGGSLRLSCAASGFTFSTYAMNWVRQAPGKGLEWVGRIRSKYNNYATYYADSVKDRFTISRDDSKNSLYLQMNSLKTEDTAVYYCARHGNFGNSYVSWFAYWGQGTLVTVSS | 1.6 |
| CD33/CD3 tandem diabody 07 (bispecific antibody) DIQMTQSPSSLSASVGDRVTITCRSSTGAVTTSNYANWVQQKPGKAPKALIGGTNKRAPGVPSRFSGSLIGDKATLTISSLQPEDFATYYCALWYSNLWVFGQGTKVEIKGGSGGSQVQLQESGGGVVQPGRSLRLSCAASGFSFSNYGIHWVRQAPGKGLEWVALISYDGNKKFYADSVKGRFAISRDTSKNTVDLQMTSLRPEDTAVYYCAKDRLESAAFDYWGQGTLVTVSSGGSGGSSYELTQPPSVSVAPGQTAMITCGGNNIGSTTVHWYQQKPGQAPVLVVYDDNERPSGIPERFSGSNSGSTATLTINRVEAGDEADYYCQVWDSGSDHVVFGGGTKLTVLGGSGGSEVQLVESGGGLVQPGGSLRLSCAASGFTFSTYAMNWVRQAPGKGLEWVGRIRSKYNNYATYYADSVKDRFTISRDDSKNSLYLQMNSLKTEDTAVYYCARHGNFGNSYVSYFAYWGQGTLVTVSSAAAGSHHHHHH | 45.8 |
| CD33/CD3 tandem diabody 08 (bispecific antibody) QSVLTQPPSASGTPGQRVTISCSGSRSNIGSNTVNWYQQLPGTAPKLLIYGNNQRPSGVPDRFSGSKSGSSASLAISGLQSEDEADYYCATWDDSLIGWVFGGGTKLTVLGGSGGSEVQLVESGGGLVQPGGSLRLSCAASGFTFSTYAMNWVRQAPGKGLEWVGRIRSKYNNYATYYADSVKDRFTISRDDSKNSLYLQMNSLKTEDTAVYYCARHGNFGNSYVSYFAYWGQGTLVTVSSGGSGGSDIQMTQSPSSLSASVGDRVTITCRSSTGAVTTSNYANWVQQKPGKAPKALIGGTNKRAPGVPSRFSGSLIGDKATLTISSLQPEDFATYYCALWYSNLWVFGQGTKVEIKGGSGGSQVQLVQSGAEVKKPGASVKVSCKASGYTFTSYDINWVRQAPGQGLEWMGWMNPNSGNTGFAQKFQGRVTMTRDTSTSTVYMELSSLRSEDTAVYYCARDRANTDFSYGMDVWGQGTLVTVSSAAAGSHHHHHH | 0.6 |

— patent publication US20210024654A1 (AMPHIVENA THERAPEUTICS, published 2021)
